Laboratory results taken from patent publication US6429014B1, “Monoterpene synthases from grand fir (Abies grandis)” (Washington State University Research Foundation, priority 1997, dated 2002).

What was measured:
[1] = Monoterpene synthase assay and product identification with extracts of E. coli expressing Grand fir cDNA clones (Example 3); assay type: biochemical
Method: For expression, bacterial strains E. coil XLOLR/pAG3.18, E. coil XLOLR/pAG3.48, E. coli XL1-Blue/pGAG2.2, E. coli XL1-Blue/pGAG3.18, and E. coil BL21(DE3)/pSBAG10were grown to A600=0.5 at 37° C. in 5 ml of LB medium (Sambrock, J., Fritsch, E. F., and Maniatis, T. (1989) Molecular Cloning: A Laboratory Manual, 2d Ed., Cold Spring Harbor Laboratory, Cold Spring Harbor, N.Y.) supplemented with 100 μg ampicillin/ml or 30 μg kanamycin/ml as determined by the vector. Cultures were then induced by addition of 1 mM isopropyl-1-thio-β-D-galactopyranoside and grown for another 12 h at 20° C. Cells were harvested by centrifugation (2000×g, 10 min) and resuspended in either 1 ml monoterpene synthase assay buffer [50 mM Tris/HCl (pH 7.5), 500 mM KCl, 1 mM MnCl2, 5 mM dithiothreitol, 0.05% (w/v) NaHSO3 and 10% (v/v) glycerol], 1 ml sesquiterpene synthase assay buffer [10 mM dibasic potassium phosphate, 1.8 mM monobasic potassium phosphate (pH 7.3), 140 mM NaCl, 10 mM MgCl2, 5 mM dithiothreitol, 0.05% (w/v) NaHSO3 and 10% (v/v) glycerol], or 1 ml diterpene synthase assay buffer [30 mM Hepes (N-2-hydroxyethylpiperazine-N-′2-ethanesulfonic acid, pH 7.2), 7.5 mM MgCl2, 5 mM dithiothreitol, 10 µM MnCl2, 0.05% (w/v) NaHSO3 and 10% (v/v) glycerol].
Cells were disrupted by sonication (Braun-Sonic 2000 with microprobe at maximum power for 15 seconds at 0-4° C.), the homogenates were cleared by centrifugation (18,000×g, 10 min), and 1 ml of the resulting supernatant was assayed for monoterpene synthase activity with 2.5 μM of [1-^3H]geranyl diphosphate, for sesquiterpene synthase activity with 3.5 μM [1-^3H]farnesyl diphosphate, or for diterpene synthase activity with 5 μM [1- ^3H]geranylgeranyl diphosphate following standard protocols (Croteau, R., and Cane, D. E. (1985) Methods Enzymol. 110:383-405; LaFever, R. E., Stofer Vogel, B., and Croteau, R. (1994) Arch. Biochem. Biophys. 313:139-149; Dehal, S. S., and Croteau, R. (1988) Arch. Biochem. Biophys. 261:346-356). In the case of the monoterpene synthase and sesquiterpene synthase assays, the incubation mixture was overlaid with 1 ml pentane to trap volatile products. In all cases, after incubation at 31° C. for 2 h, the reaction mixture was extracted with pentane (3×1 ml) and the combined extract was passed through a 1.5 ml column of anhydrous MgSO4 and silica gel (Mallinckrodt 60 Å) to provide the terpene hydrocarbon fraction free of oxygenated metabolites. The columns were subsequently eluted with 3×1 ml of ether to collect any oxygenated products, and an aliquot of each fraction was taken for liquid scintillation counting to determine conversion rate.
Product Identification—To obtain sufficient product for analysis by radio-GLC (gas liquid chromatography), chiral capillary GLC and GLC-MS (mass spectrum/spectrometry), preparative-scale enzyme incubations were carried out. Thus, the enzyme was prepared from 50 ml of cultured bacterial cells by extraction with 3 ml of assay buffer as above, and the extracts were incubated with excess substrate overnight at 31° C. The hydrocarbon fraction was isolated by elution through MgSO4-silica gel as before, and the pentane eluate was concentrated for evaluation by capillary radio-GLC as described (Croteau, R., and Satterwhite, D. M. (1990) J. Chromatogr. 500:349-354), by chiral column capillary GLC (Lewinsohn, E., Savage, T. J., Gijzen, M., and Croteau, R. (1993) Phytochem. Anal. 4:220-225), and by combined GLC-MS [Hewlett-Packard 6890 GC-MSD with cool (40° C.) on-column injection, detection via electron impact ionization (70 eV), He carrier at 0.7 psi., column:0.25 mm i.d.×30 m fused silica with 0.25 μm film of 5MS (Hewlett-Packard) programmed from 35° C. (5 min hold) to 230° C. at 5° C./min].

[2] = Bohlmann et al. 1997; cited from earlier work

B1: AG3.18: recombinant (−)-pinene synthase from Grand fir encoded by cDNA clone AG3.18 (SEQ ID NO:3; protein SEQ ID NO:4) (protein, listed as Abies grandis)
chain: MALVSTAPLASKSCLHKSLISSTHELKALSRTIPALGMSRRGKSITPSISMSSTTVVTDDGVRRRMGDFHSNLWDDDVIQSLPTAYEEKSYLERAEKLIGEVKNMFNSMSLEDGELMSPLNDLIQRLWIVDSLERLGIHRHFKDEIKSALDYVYSYWGENGIGCGRESVVTDLNSTALGLRTLRLHGYPVSSDVFKAFKGQNGQFSCSENIQTDEEIRGVLNLFRASLIAFPGEKIMDEAEIFSTKYLKEALQKIPVSSLSREIGDVLEYGWHTYLPRLEARNYIQVFGQDTENTKSYVKSKKLLELAKLEFNIFQSLQKRELESLVRWWKESGFPEMTFCRHRHVEYYTLASCIAFEPQHSGFRLGFAKTCHLITVLDDMYDTFGTVDELELFTATMKRWDPSSIDCLPEYMKGVYIAVYDTVNEMAREAEEAQGRDTLTYAREAWEAYIDSYMQEARWIATGYLPSFDEYYENGKVSCGHRISALQPILTMDIPFPDHILKEVDFPSKLNDLACAILRLRGDTRCYKADRARGEEASSISCYMKDNPGVSEEDALDHINAMISDVIKGLNWELLKPDINVPISAKKHAFDIARAFHYGYKYRDGYSVANVETKSLVTRTLLESVPL
prenyl diphosphate substrate utilized (geranyl, farnesyl, geranylgeranyl diphosphate tested) ([1]; cell-free extract of induced E. coli, tritium labeled substrates): only geranyl diphosphate was utilized | α-pinene share of product mixture from geranyl diphosphate ([1]; cell-free extracts of E. coli): 42% | β-pinene share of product mixture from geranyl diphosphate ([1]; cell-free extracts of E. coli): 58% | monoterpene products formed from geranyl diphosphate ([1]; radio-GLC, GLC-MS, chiral GLC): No other monoterpene co-products were detected | (−)-enantiomer share of the α-pinene formed [2]: more than 99%
